Entries after “also recorded” stand apart in the source; their conditions may differ. One block for each molecule: values may come before it. Ends that are not written are not given here.
Experiments:
[1] = biological target: T1, Extradenticle (Exd), homeodomain plus extended fourth helix (Drosophila) (UniProt P40427); experiment: EMSA; details: apparent, with polyamide-FYPWM conjugate
T1 sequence: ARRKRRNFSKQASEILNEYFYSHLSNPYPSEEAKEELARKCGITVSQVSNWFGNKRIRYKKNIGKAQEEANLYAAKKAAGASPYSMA

[2] = biological target: TGGTCA matched site on 250-bp EcoRI/PvuII restriction fragment from plasmid pDEH9; experiment: Quantitative DNase I footprint titration, matched site; type: binding; details: 12 h at 22° C., TKMC buffer pH 7.0, read-out: Equilibrium Dissociation Constants Kd, TGGTCA
Procedure: (§1) Quantitative DNaseI footprinting can be used to determine the equilibrium association constants for binding to match and mismatch sites. Footprinting experiments are generally performed on 3′- and/or 5′-^32P end restriction fragments derived from plasmids. 3′-shifted cleavage patterns are consistent with location of the polyamide in the minor groove. Typical reaction conditions are: 10 mM Tris-HCl, 10 mM KCl, 10 mM MgCl2, 5 mM CaCl2, pH 7.0, and 22° C. See Brenowitz et al. (1986). Methods Enzymol. 130:132-181; Fox & Waring (1984) Nucleic Acids Res. 12:9271-9285; and Brenowitz et al. (1986) Proc. Natl. Acad. Sci. U.S.A. 83: 8462-8466.
DNase I Footprinting: Dissociation constants for the DNA binding of compounds 1, 2 and 3 were obtained following published protocols. All reactions were carried out in 400 μL total volume employing 20 kcpm of a 3′-radiolabelled 250-bp restriction fragment from the plasmid pDEH9 (FIG. 1a) (SEQ. ID. NO: 4). […]
FIGS. 1b, 1c, and 1d are quantitative DNAse I footprint titration experiments for compounds 1, 2 and 3 on the 3′^−32 P-labeled 250-bp EcoRI/PvuII restriction fragment from the plasmid pDEH9. […]
The DNA-binding properties of the compounds 1-3 were investigated by quantitative DNase 1 footprinting assays. […]

[3] = test system: TGGCCA mismatch site on 250-bp EcoRI/PvuII restriction fragment from plasmid pDEH9; experiment: Quantitative DNase I footprint titration, mismatch site TGGCCA; type: binding
Procedure: as §1
(§2) DNase I Footprinting: Dissociation constants for the DNA binding of compounds 1, 2 and 3 were obtained following published protocols. All reactions were carried out in 400 μL total volume employing 20 kcpm of a 3′-radiolabelled 250-bp restriction fragment from the plasmid pDEH9 (FIG. 1a) (SEQ. ID. NO: 4). No carrier DNA was used in the equilibration, and the solutions were allowed to equilibrate for 12 h at 22° C. in TKMC buffer (10 mM TRIS, 10 mM KCl, […], 5 mM CaCl2 pH 7.0) prior to the DNase I digestion. Reaction products (8 kcpm) were resolved on denaturing 8% polyacrylamide sequencing gels run at 55 W.
(§3) FIGS. 1b, 1c, and 1d are quantitative DNAse I footprint titration experiments for compounds 1, 2 and 3 on the 3′^−32 P-labeled 250-bp EcoRI/PvuII restriction fragment from the plasmid pDEH9. Lane 1: Intact DNA. Lane 2: A-reaction. Lane 3: G-reaction. Lane 4: DNAse 1 standard.
(§4) The DNA-binding properties of the compounds 1-3 were investigated by quantitative DNase 1 footprinting assays. The equilibrium binding constants of each of the compounds for a matched versus three single base pair mismatch sites is compiled in Table 1. The lower strand sequence is shown in the header. Mismatched base pairs are underlined. The residue under the YPWM peptide is in bold. Relative specificities are given in square brackets.

[4] = test system: TGGGCA mismatch site on 250-bp EcoRI/PvuII restriction fragment from plasmid pDEH9; experiment: Quantitative DNase I footprint titration, mismatch site TGGGCA; type: binding
Procedure: as §1, §2, §3, §4

[5] = test system: AGCTCA mismatch site on 250-bp EcoRI/PvuII restriction fragment from plasmid pDEH9; experiment: Quantitative DNase I footprint titration, mismatch site AGCTCA; type: binding
Procedure: as §1, §2, §3, §4

[6] = biological target: T2, extradenticle (Exd) protein (residues 238-324) (Drosophila melanogaster, UniProt P40427); experiment: EMSA: recruitment of Exd to its cognate DNA site by polyamides 1-3; type: binding; details: saturating 50 nM compound; Exd 0-100 nM; listed as compound 3
T2 construct: comprising the homeodomain and the extended fourth helix (residues 238-324); made in house
T2 sequence (P40427 238-324): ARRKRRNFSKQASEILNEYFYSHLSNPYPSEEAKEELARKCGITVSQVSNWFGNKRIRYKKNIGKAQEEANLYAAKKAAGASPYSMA
From the text: Protein expression: Drosophila extradenticle (Exd) protein comprising the homeodomain and the extended fourth helix (residues 238-324), as well as ultrabithorax (Ubx) protein homeodomain (residues 233-313 of the Ubx isoform IVa) were expressed and purified after Passner & Aggarwal. The purified proteins Exd and Ubx were used for EMSA studies as described below.
For the templates, the DNA oligonucleotides depicted in FIGS. 2a, 2b, 2c, and 2d were used, SEQ. ID NOS: 5, 6, 7, and 8, respectively. The DNA upper strand was annealed with the respective matching lower strand and both strands were 5′-labeled with γ-^32P-ATP and polynucleotide kinase, using standard procedures.
Gel-shift experiments: The master mix contained 50% BSA/50% glycerol, reaction buffer (150 mM potassium glutamate, 50 mM HEPES pH 7.0, 1 mM DTT, and 5′-end labeled DNA (^32P) The final concentrations in the samples were 100 ng/μL BSA and 10% glycerol. Polyamides were kept in subdued lighting whenever possible. Upon addition of the polyamide to 1 pM DNA, the samples were incubated at 25 °C. for 30 minutes in a 20 μL reaction. Next, Exd was added to the samples and incubated for 1 hour at 4° C. A 9% acrylamide/3% glycerol gel was pre-run for 15 min prior to loading. In each lane 15 μL of a 20 μL reaction were loaded while the gel was running to prevent the samples from being diluted. The gels were run at 4° C./185 V. Gels were dried, exposed to a phosphorimager screen, and visualized using a Molecular Dynamics phosphorimager.
FIGS. 3a and 3b: EMSA studies with polyamides 1-3, Exd and Ubx. In FIG. 3a, each polyamide binds and decreases the mobility of free DNA (lanes 2-18). […] In lanes 2-6,8-12, 14-18, Exd was added in following concentrations: 0, 3, 10, 30, 100 nM. Lanes 19 and 20 contained DNA bearing the Exd-Ubx binding site that was used in X-ray crystal structure determination (see methods above for sequence). In the reaction shown in lane 20, 275 nM Ubx and 30 nM Exd were incubated with DNA. […]

Exd = biological target: T3, Exd (Drosophila melanogaster, UniProt P40427); experiment: Example 7 EMSA: recruitment of Exd by linker compounds; type: binding; details: for positioning of the test compound with respect to its hydrophobic docking site on the surface of Exd: short linkers (<4 Å when fully extended); for ability to recruit Exd: 4° C.
T3 construct: comprising the homeodomain and the extended fourth helix (residues 238-324); made in house
T3 sequence (P40427 238-324): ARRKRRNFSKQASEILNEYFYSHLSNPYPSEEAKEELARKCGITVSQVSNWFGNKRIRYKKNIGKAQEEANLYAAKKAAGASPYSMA
Procedure: The assays were performed with 50 nM of the conjugate pre-incubated with target DNA (thus to bind the anchor moiety to the target nucleic acid) followed by the addition and incubation with Exd.
To determine the effects of longer linker on binding, the ability of compounds using linkers 1, 2 and 4 to recruit Exd at three different temperatures was investigated.

[7] = biological target: T4, Drosophila extradenticle (Exd) protein comprising the homeodomain and the extended fourth helix (residues … (Drosophila, UniProt P40427 238-324)); experiment: EMSA, Exd on DNA with and without compound 2
T4 sequence (looked up): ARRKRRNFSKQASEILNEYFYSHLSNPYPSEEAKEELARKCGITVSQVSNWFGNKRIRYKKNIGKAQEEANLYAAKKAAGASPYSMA
Procedure: (§5) The gels were run at 4° C./185 V. Gels were dried, exposed to a phosphorimager screen, and visualized using a Molecular Dynamics phosphorimager.
(§6) A 47-base-pair duplex DNA with one cognate site was incubated with saturating concentrations (50 nM) of each compound.

[8] = biological target: T4, Drosophila extradenticle (Exd) protein …; experiment: EMSA, compared with Exd on the Ubx-DNA complex
Procedure: (§7) Upon addition of the polyamide to 1 pM DNA, the samples were incubated at 25 °C. for 30 minutes in a 20 μL reaction. […] A 9% acrylamide/3% glycerol gel was pre-run for 15 min prior to loading. In each lane 15 μL of a 20 μL reaction were loaded while the gel was running to prevent the samples from being diluted. The gels were run at 4° C./185 V. Gels were dried, exposed to a phosphorimager screen, and visualized using a Molecular Dynamics phosphorimager.
as §6

[9] = biological target: T4, Drosophila extradenticle (Exd) protein …; experiment: EMSA, recruitment of Exd to its cognate DNA site by DNA-bound compound 2 compared with Ubx
Procedure: as §7, §6

[10] = biological target: T4, Drosophila extradenticle (Exd) protein …; experiment: EMSA, Exd titrated on the DNA/compound 2 binary complex (ternary complex), 4 °C; Exd (residues 238-324) on the DNA/compound 2 complex, EMSA
Procedure: as §5, §6

[11] = biological target: T4, Drosophila extradenticle (Exd) protein …; experiment: EMSA, conjugate pre-incubated with target DNA, then Exd
[12] = biological target: T4, Drosophila extradenticle (Exd) protein …; experiment: EMSA (gel shift), 32P-labelled duplex DNA pre-bound with 50 nM compound 3, Exd titrated, 4 °C
Procedure: as §7, §6

[13] = relative to matched site TGGTCA

Molecule: 50 bp duplex with single optimal polyamide site and adjacent Exd site (Example 7)
- Kd ([1]; linker 1 (PEG), 4 C, much reduced at higher temperature): 0.6 nM
- Kd ([1]; linker 4, 4 C, less than 5-fold decrease at 37 C): 0.08 nM

- Kd [2]: 0.86 ± 0.32 nM
- Relative specificity (square brackets), TGGCCA [3, 13]: 14
- Kd ([3]; single base pair mismatch site, 22° C., TKMC buffer, read-out: Equilibrium Dissociation Constants Kd, TGGCCA): 12 ± 5 nM
- Relative specificity (square brackets), TGGGCA [4, 13]: 116
- Kd ([4]; single base pair mismatch site, 22° C., TKMC buffer, read-out: Equilibrium Dissociation Constants Kd, TGGGCA): ≥ 0.1 nM
- Relative specificity (square brackets), AGCTCA [5, 13]: 16
- Kd ([5]; single base pair mismatch site, 22° C., TKMC buffer, read-out: Equilibrium Dissociation Constants Kd, AGCTCA): 14 ± 5 nM
Molecule: Cmpd 3 (FYPAAKG)
- ability to recruit Exd to its cognate DNA site (Exd binding) [6]: No binding was observed; also recorded: Neither compound 3 nor 1 showed any ability to recruit Exd
- ability to stabilize Exd binding to the adjacent cognate DNA site (TGAT) (Exd; 50 nM conjugate pre-incubated with target DNA, data not shown): Neither the parent polyamide lacking the YPWM hook, nor the polyamide bearing an altered hook (FYPAAK) (SEQ. ID. NO: 14) was able to stabilize Exd binding

Molecule: Linker 8: Example 7 polyamide-FYPWM conjugate with linker 8, lysine linker, ~2.5 Å (FYPWMK; also: conjugated to polyamide via linker 8)
- positioning of the test compound with respect to its hydrophobic docking site on the surface of Exd (Exd): do not optimally position the test compound

Molecule: Linker 7: Example 7 polyamide-FYPWM conjugate with linker 7, no lysine residue (also: conjugated to polyamide via linker 7)
- positioning of the test compound with respect to its hydrophobic docking site on the surface of Exd (Exd): do not optimally position the test compound

- ability to recruit Exd in comparison to the compound using linker 5 (Exd; absence of the lysine residue): did not appreciably alter
Molecule: Linker 6: Example 7 polyamide-FYPWM conjugate with linker 6, no lysine residue (not fully specified (C-terminus); also: joined via linker 7 (no lysine) to hairpin polyamide)

Molecule: Linker 2: Example 7 polyamide-FYPWM conjugate with linker 2, 10-atom linker, ~11 Å (FYPWMK; also: conjugated to polyamide via linker 2)
- ability to recruit Exd (Exd): recruit Exd effectively

- ability to recruit Exd (Exd): recruit Exd effectively
- binding affinity (Exd recruitment) (Exd; higher temperatures (23° C., 37° C.)): dramatically reduced binding affinity
Molecule: Linker 1: Example 7 polyamide-FYPWM conjugate with linker 1, defined 28-atom polyethylene glycol linker, ~33 Å (FYPWMK; also: conjugated to polyamide via linker 1)

- ability to recruit Exd (Exd): recruit Exd effectively
Molecule: Linker 4: Example 7 polyamide-FYPWM conjugate with linker 4, 7-atom linker, ~7 Å (FYPWMK; also: conjugated to polyamide via linker 4)

- fold improvement of the affinity of Exd for its cognate site against DNA alone [7]: ≥ 200 fold
- fold of Kd of Exd against that for the DNA-Ubx complex [8]: 2 fold
- fold lower concentration required to recruit Exd, against its natural Hox partner (Ubx) [9]: 20 fold
- Kd [10]: 4.4 nM
B1: Compound 2: hairpin polyamide 1 conjugated to Ac-Phe-Tyr-Pro-Trp-Met-Lys-Gly- (peptide)
peptide: Ac-FYPWMKG
modifications: not fully specified (C-terminus); printed as Ac-Phe-Tyr-Pro-Trp-Met-Lys-Gly-; also: C-terminal Gly amide-bonded to propylamine side chain of polyamide 1
notes: Peptide-polyamide conjugate; The peptide carries the Hox YPWM motif; also called conjugate 2; polyamide 2

- binding result [11]: no binding (tested: 50 nM conjugate)
Molecule: FYPAAK (also: conjugated to hairpin polyamide, linker not given here) [polyamide bearing an altered hook (FYPAAK)]

- binding result [12]: no binding (tested: 100 nM)
B2: Compound 3: hairpin polyamide 1 conjugated to Ac-Phe-Tyr-Pro-Ala-Ala-Lys-Gly- (peptide)
peptide: Ac-FYPAAKG
modifications: not fully specified (C-terminus); printed as Ac-Phe-Tyr-Pro-Ala-Ala-Lys-Gly-; also: C-terminal Gly amide-bonded to propylamine side chain of polyamide 1
notes: Non-functional (Trp-Met to Ala-Ala) control conjugate; also called conjugate 3; polyamide 3

— US20050123936A1, “Method, composition, and kit to design, evaluate, and/or test compounds that modulate regulatory factor binding to nucleic acids” (priority 2003, published 2005)
